B1: F(ab)92 fragment of 18D11: F(ab)92 fragment of the murine anti-human CD14 clone 18D11 (Diatec) (antibody, V domains shown)
VH: EVQLVESGGGLMQPKGSLKLSCAASGFTFKTYALNWVRQAPGTGLEWVARIRSKSNNYTTYYADSVKDRFTISRDDSQNMLYLQMNNLKTEDTAMYYCVRPQSGTSFAYWGQGTLVTVSAA
VL: NIVLTQSPASLAVSLGQRATISCRASESVDSYGNSFMHWYQQKPGQPPKLLIYLASNLESGVPARFSGSGSRTDFTLTIDPVEADDVATYYCQQNNGDPYTFGGGTKLEIIR
B2: 18D11: mouse anti-human CD14 IgG1 clone 18D11 (Diatec), original murine clone (antibody, V domains shown)
VH: B1 VH
VL: B1 VL

Legend:
human whole blood [1] = experiment: Unwanted effects (complement activation, oxidative burst) in nonstimulated human whole blood; assay type: cell-based; settings: 10 mg/ml Ab; for complement activation: not shown
Experimental: (§1) The whole blood model has been described in detail previously (36). Fresh human venous or porcine arterial blood was drawn directly into tubes containing the anticoagulant lepirudin (Pharmion) at a final concentration of 50 mg/ml. In 1.8-ml Cryo Tube vials (Nunc, Roskilde, Denmark), the blood was preincubated with up to 20 mg/ml anti-human CD14 (r18D11 or 18D11), or 50 mg/ml anti-porcine CD14 (rMil2 or Mil2) at 37° C. for 10 min prior to an additional 2-h incubation in the presence of 100 ng/ml ultrapure LPS from Escherichia coli 0111:B4 (InvivoGen, San Diego, Calif.) for human blood or 1 3 105/ml heat-inactivated E. coli (strain LE392, ATCC33572) for porcine blood. As negative controls, PBS with MgCl2 and CaCl2 (Sigma-Aldrich) and isotype controls were used. Adverse effects were tested using nonactivated whole blood samples. After the addition of 10 mM (human) or 20 mM (porcine) EDTA, plasma was gained by 15 min centrifugation at 3220 3 g and 4° C. Levels of TNF, IL-6, and IL-1b in human plasma were determined using Bioplex technology (Bio-Rad Laboratories AB). Levels of TNF, IL-1b, and IL-8 in porcine plasma were determined using ELISA (Quantikine, R&D Systems, Minneapolis, Minn.). Platelet count was quantified by impedance using a CELL-DYN Sapphire hematology analyzer (Abbott Laboratories, Abbott Park, Ill.).

human whole blood [2] = experiment: Whole blood ex vivo model of inflammation, LPS-induced cytokine release in human blood; assay type: cell-based; design: Ab concentration at which maximum inhibitory effects were reached: unit not given here
Experimental: as §1

| Molecule | complement activation (human whole blood [1]) | E. coli ultrapure LPS-induced release of IL-1b, TNF and IL-6 (human whole blood [2]; 100 ng/ml LPS, dose-dependent) | Ab concentration at which maximum inhibitory effects were reached (human whole blood [2]; LPS-induced IL-1b, TNF, IL-6 release) | monocyte oxidative burst (human whole blood [1]; flow cytometry) |
| --- | --- | --- | --- | --- |
| B1 | did not | – | – | – |
| B2 | same low level of complement activation | inhibited | 10 | significantly induced |

From patent US20170107294A1, “ANTI-CD14 ANTIBODIES AND USES THEREOF” (Nordlandssykehuset HF, priority 2014, published 2017)
